Earlier results, collected in patent publication US20050026224A1, “Methods and compositions for modulating G-protein coupled receptor 54” (priority 2003, published 2005).

Legend:
[1] = system: cell motility; conditions: Hori et al. 2001
[2] = system: cell motility; conditions: Hori et al. 2001; remark: listed apart in the source
[3] = system: GPR54 transfected CHO cells; conditions: GPR54 transfected CHO cells in vitro; Ohtaki et al. 2001
[4] = system: GPR54 transfected CHO cells; conditions: GPR54 transfected CHO cells in vitro; Ohtaki et al. 2001; remark: listed apart in the source
[5] = system: GPR54-transfected B16-BL6 melanomas; conditions: GPR54-transfected B16-BL6 melanomas in vivo; Ohtaki et al. 2001

B1: Metastin: peptide ligand agonist for GPR54; protein product of the Kiss-1 gene (SEQ ID NO: 4) (protein, listed as Homo sapiens)
chain: MNSLVSWQLLLFLCATHFGEPLEKVASVGNSRPTGQQLESLGLLAPGEQSLPCTERKPAATARLSRRGTSLSPPPESSGSRQQPGLSAPHSRQIPAPQGAVLVQREKDLPNYNWNSFGLRFGKREAAPGNHGRSAGRGWGAGAGQ
[1]
  cell motility in a chemotaxis assay: suppress cell motility
[2]
  cell motility in a wound healing assay: suppress cell motility
[3]
  chemotaxis: inhibits chemotaxis
[4]
  invasion: inhibits
[5]
  pulmonary metastasis: attenuates pulmonary metastasis
